Here are results for 8 substances from patent US20240132578A1.

Where only a bound is given, the exact number is not on record here.

Holding throughout (assay): cell-based or functional assay
The target in experiment [1] is HIV-1 envelope glycoprotein (Env) of isolate 92WR021, subtype A (HIV-1).
Experiment [2] addresses HIV-1 JR-CSF Env N396A (HIV-1 (isolate JR-CSF)) (UniProt P20871).
Experiment [3] addresses HIV-1 envelope glycoprotein (Env) of isolate CMU02, subtype AE (HIV-1).
In experiment [4] the target is HIV-1 envelope glycoprotein (Env) of isolate MGRM-Chronic-B-011, on pseudovirus (HIV-1).
Experiment [5] has as its target HIV-1 envelope glycoprotein (Env) of isolate CAAN.A2, on pseudovirus (HIV-1).
In experiment [6] the target is HIV-1 JR-CSF Env F468A (HIV-1 (isolate JR-CSF)) (UniProt P20871).
Experiment [7] deals with HIV-1 JR-CSF Env T303A (HIV-1 (isolate JR-CSF, clade B)) (UniProt P20871).
Experiment [8] has as its target HIV-1 JR-CSF Env W395A (HIV-1 (isolate JR-CSF)) (UniProt P20871).
Experiment [9] addresses HIV-1 Env of isolate MGRM-F1-016 (pseudovirus) (HIV-1).
Experiment [10] deals with HIV-1 Env of isolate MGRM-AG-012 (pseudovirus) (HIV-1).
Experiment [11] concerns the target HIV-1 envelope glycoprotein (Env) of isolate 92RW008, subtype A (HIV-1).
Experiment [12] has as its target HIV-1 Env of isolate MGRM-C-023 (subtype C), on pseudovirus (HIV-1).
Experiment [13] addresses HIV-1 Env of isolate MG RM-A-011 (pseudovirus) (HIV-1).
Experiment [14] addresses HIV-1 Env of pseudovirus MGRM-F1-016 (HIV-1).
For experiment [15], the target named is HIV-1 Env of pseudovirus MGRM-D-024 (HIV-1).
Experiment [16] has as its target HIV-1 Env of isolate MGRM-AE-001 (pseudovirus) (HIV-1).
For experiment [17], the target named is HIV-1 envelope glycoprotein (Env) of isolate MG RM-AG-001 (HIV-1).
Experiment [18] deals with HIV-1 Env of isolate MG RM-A-009 (pseudovirus) (HIV-1).
Experiment [19] concerns the target HIV-1 Env of isolate MGRM-G-017 (subtype G) (HIV-1).
Experiment [20] deals with HIV-1 Env of pseudovirus isolate MGRM-Chronic-B-008 (clade B) (HIV-1).
Experiment [21] has as its target HIV-1 Env of isolate MGRM-D-005 (HIV-1).
Experiment [22] has as its target HIV-1 Env of isolate MGRM-G-013 (subtype G) (HIV-1).
The target of experiment [23] is HIV-1 Env of isolate MGRM-G-019 (subtype G) (HIV-1).
The target of experiment [24] is HIV-1 MGRM-C-027 Env (HIV-1).
The target in experiment [25] is HIV-1 92UG024 envelope protein (Env) on pseudovirus (HIV-1).

PGT-143 (4980_N08) (antibody), sequence (VH): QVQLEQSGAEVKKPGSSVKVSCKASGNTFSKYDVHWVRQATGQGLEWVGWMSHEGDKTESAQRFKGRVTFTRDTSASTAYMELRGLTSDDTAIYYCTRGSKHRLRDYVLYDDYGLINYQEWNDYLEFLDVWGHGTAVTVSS
PGT-143 (4980_N08) (antibody), sequence (VL): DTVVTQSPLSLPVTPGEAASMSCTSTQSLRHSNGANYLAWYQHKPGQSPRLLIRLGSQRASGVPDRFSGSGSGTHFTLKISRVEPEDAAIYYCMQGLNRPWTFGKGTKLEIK
PGT-144 (4970_K22) (antibody), sequence (VH): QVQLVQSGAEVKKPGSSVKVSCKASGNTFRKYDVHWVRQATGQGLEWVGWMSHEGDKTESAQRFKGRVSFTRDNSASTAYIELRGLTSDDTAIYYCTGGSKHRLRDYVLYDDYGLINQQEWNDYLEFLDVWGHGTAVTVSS
PGT-144 (4970_K22) (antibody), sequence (VL): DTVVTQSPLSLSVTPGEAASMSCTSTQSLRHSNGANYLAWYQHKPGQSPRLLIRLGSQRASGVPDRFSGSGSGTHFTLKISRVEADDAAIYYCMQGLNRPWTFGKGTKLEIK
PGT-145 (4995_P16) (antibody), sequence (VH): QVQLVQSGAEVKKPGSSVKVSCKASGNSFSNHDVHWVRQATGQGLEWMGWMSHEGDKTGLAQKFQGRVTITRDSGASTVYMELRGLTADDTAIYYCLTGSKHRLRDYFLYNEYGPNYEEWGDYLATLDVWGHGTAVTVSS
PGT-145 (4995_P16) (antibody), sequence (VL): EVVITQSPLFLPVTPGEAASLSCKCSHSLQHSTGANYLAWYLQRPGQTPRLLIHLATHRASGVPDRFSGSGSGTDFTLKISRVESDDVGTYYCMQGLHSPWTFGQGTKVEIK
PGT-141 (4964_G22; 4993_K13) (antibody), sequence (VH): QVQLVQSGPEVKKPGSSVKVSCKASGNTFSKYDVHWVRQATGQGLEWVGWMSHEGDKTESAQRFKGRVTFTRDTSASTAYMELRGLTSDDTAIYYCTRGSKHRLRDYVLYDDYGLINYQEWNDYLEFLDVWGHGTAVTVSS
PGT-141 (4964_G22; 4993_K13) (antibody), sequence (VL): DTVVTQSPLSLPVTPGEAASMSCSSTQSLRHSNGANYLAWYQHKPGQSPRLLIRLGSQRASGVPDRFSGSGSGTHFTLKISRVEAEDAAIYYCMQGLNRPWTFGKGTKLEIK

As for 5145_B14 (PGT-127) (antibody), the IC50, pseudovirus neutralization is 0.011 µg/mL in experiment [1]; over 50 µg/mL in experiment [3]; 0.297 µg/mL in [4]; 0.371 µg/mL in experiment [5]; 0.012 µg/mL in experiment [11]. Further, the Fold IC50 increase relative to wild-type (pseudovirus neutralization) is 2.4 fold in experiment [2], 3 fold in experiment [6] and 1.6 fold in experiment [8]. In [7], this substance yielded a Fold IC50 increase relative to wild-type of over 500 fold. The IC50 (µg/mL), pseudovirus neutralization in experiment [9] and in experiment [10] was over 50 µg/mL each time.

The substance VRC01 (antibody) gave an IC50, single-round pseudovirus neutralization in [12] of 0.077 µg/mL. In addition, the IC50 (µg/mL), single-round pseudovirus neutralization came out at 0.273 µg/mL in experiment [13], 0.167 µg/mL in experiment [16] and 0.118 µg/mL in [18]. Also, the IC50, pseudovirus neutralization in experiment [14] is 0.517 µg/mL; in experiment [15] it was 0.366 µg/mL; in experiment [20], 0.155 µg/mL. For the same substance, the half-maximal inhibitory concentration (IC50) (as a rule, the concentration needed to halve the response being measured) in experiment [17] came to 0.228 µg/mL. Also, the IC50 (µg/mL), pseudovirus neutralization in experiment [19] is 0.124 µg/mL; in experiment [21], over 50 µg/mL; in [22] it was 0.553 µg/mL; in experiment [23], 0.06 µg/mL.

PGT-143 (4980_N08) (antibody): the IC50, pseudovirus neutralization in experiment [14] and in [15] was over 50 µg/mL in each case. This substance also gave a half-maximal inhibitory concentration (IC50) in experiment [17] of 18.9 µg/mL.

PGT-145 (4995_P16) (antibody): the IC50, pseudovirus neutralization is 17.5 µg/mL in experiment [14] and 0.224 µg/mL in experiment [15]. This substance also came in with an IC50 in experiment [17] of 0.164 µg/mL.

For 5141_B17 (PGT-126) (antibody), the IC50, pseudovirus neutralization was 0.006 µg/mL in experiment [1]; 1.14 µg/mL in [24]; over 50 µg/mL in [3]; 0.108 µg/mL in experiment [4]; 0.273 µg/mL in experiment [5]; 0.008 µg/mL in experiment [11]. The figures for the Fold IC50 increase relative to wild-type (pseudovirus neutralization) in experiment [2], in experiment [6] and in experiment [8] were 1.7 fold, 0.7 fold and 0.6 fold, respectively. Also, the Fold IC50 increase relative to wild-type in experiment [7] was over 250 fold. In addition, in experiment [25], the IC50 (ug/mL), pseudovirus neutralization was over 10 µg/mL. For the same substance, the IC50 (µg/mL), pseudovirus neutralization in experiment [9] and in experiment [10] was over 50 µg/mL throughout.

With PGT-141 (4964_G22; 4993_K13) (antibody), the IC50, pseudovirus neutralization in experiment [14] and in experiment [15] was over 50 µg/mL throughout. This substance registered a half-inhibitory concentration (IC50) in experiment [17] of 18 µg/mL.

For 5123_A06 (PGT-125) (antibody), the IC50, pseudovirus neutralization in experiment [1] is 0.005 µg/mL; in [24], over 10 µg/mL; in [3], over 50 µg/mL; in experiment [4] it was 3.23 µg/mL; in experiment [5] it was 5.47 µg/mL; in experiment [11], 0.004 µg/mL. In addition, the Fold IC50 increase relative to wild-type (pseudovirus neutralization) in [2] came out at 1.6 fold; in experiment [6] it was 1 fold; in experiment [8], 0.9 fold. In experiment [7], this substance returned a Fold IC50 increase relative to wild-type of over 250 fold. In experiment [25], this substance registered an IC50 (ug/mL), pseudovirus neutralization of over 10 µg/mL. Besides, the IC50 (µg/mL), pseudovirus neutralization in experiment [9] and in experiment [10] was over 50 µg/mL in each case.

For PGT-144 (4970_K22) (antibody), the IC50, pseudovirus neutralization in [14] and in [15] was over 50 µg/mL throughout. This substance also showed an IC50 in [17] of over 50 µg/mL.
